{"source": "the DeepSol protein solubility set", "data": [{"assay": "soluble on expression in E. coli; label from the status in PepcDB or PDB records", "values": [{"sequence": "MGSDKIHHHHHHMLRLSRELEVGEATVKRWLAGKGLTIDRLERLAGLCGMVLGDLVREAEEAPGVLAHELTLAQERALSSNIFLSFLFMTILNGIQPDETAADFSVPPREMEAALTRLERLALIDRLRSGRVRPLVDRNMVFRKLPLRNLFETHMKRVFFELDYGAPETIYTSEVVKLSVAGAAQLAELLERFRGEVQSLADRDAEKANKDRDWFGVLCVMRPLEMDPIRNAWWELS", "soluble on expression in E. coli": "not soluble"}, {"sequence": "MGSDKIHHHHHHMLRPESEAELAQIVAGLTAPVRIRGGGTRGVPGPKAELDISGLSGITLYEPGALTLVAKAGTPVAEIEAALAAEGQRLAFEPVDHRGLMGTGGTPTIGGVVAGNISGPRRIQAGAARDFLLGVRYVDGLGQVISNGGRVMKNVTGYDLVKLMAGSWGTLGVLSEVSLKVLPKAETQTTLAISVPDAASAVRALSAGLGSPYEVTGAAYDPALGQALVRIEGFEASVAYRAEALSRLFAPFGTVARLEDDPWPGIRDVAPFHGREGDVWRISVKPGDAPELAARCKAEALLFDWGGGLIWALMPEGADLRGRLGEFAGHATLIRGDRRQHAMFQPESAPLAALTRGLRQRFDPKGHFNPGLMG", "soluble on expression in E. coli": "not soluble"}, {"sequence": "MGSDKIHHHHHHMLSNLWKRQAPQMVGIDIGSHEIKAILLSKTADGYKILSHAAVPVKKGAVNDHEIRDSDAVLESLRLIKRSLPKSVKYAAAAVSGSAVMTKVIYMDASLSEEEMETQIEIEADNLIPYSLDEVSIDFETLSVNSADPSKVDVLLSACRTENIDARVDSLDDINLEAKVIDVEGYALGRSFELVAAQLPDGAEDKVVALVDIGANMTTFAVVEKGETTFIREQAFGGEQFTQSILSFYGMSHEQAEKAKLEGDLPRNYMFEVLSPFQTQLLQQIKRTLQIYCTSSGKDKVDHIVLCGGTSKLEGMANLLTNELGVHTIIADPFLGCLHADEQVKTQLQPTINKYMVACGLALRSYSQWRT", "soluble on expression in E. coli": "not soluble"}, {"sequence": "MGSDKIHHHHHHMLSNLWKRQAPQMVGIDIGSHEVKAILLGKTADGYKILSHAAVPVKKGAINDHDIRDADAVVECLRQIKRILPKSVKYAAVAVSGSAVMTKVIYMDASLSEEEMEAQIEIEADNLIPYSLDEVSIDFETLNVNSTDPSKVDVLLSACRTDNIDTRVDALDEVELETKVVDVEGYALGRAVELVLGQLPEGARQKAVAMVDIGANMTTFCVVESGETTFIREQAFGGELFTQSILSFYGMSYEQAEKAKIEGDLPRNYMFEVLSPFQTQLLQQIKRTLQIYCTSSGKDKVDYLVLCGGTSKLEGMANLLTNELGVHTIIADPFQGCLHADESVKNILQPSISKYMVACGLALRSYGQWRT", "soluble on expression in E. coli": "not soluble"}, {"sequence": "MGSDKIHHHHHHMLSVNRIVISAAGGGKTTRVVDQALACEQGQGATALITYTRNNVREIQLKAYERTRTIPSHVEVISWYSFLLRELARPYRSAMHASRVDGIHWVEGKSVPYIPEARTSGHYFFDGSRIYSDKIAKFVCECDRRSGGAIMRRLKQRFRHIIIDEIQDMAGYDLDLLELILKAGVPVTFVGDHRQATFATNNASKNKVFSGPAIIKKFELWKKQGLVEIEYETHTHRCNQTIADLGDGFFPNEPKTVSRNDKVTGHDGVFLVSSADVGEYMKRFAPQVLRYSAATNCDLDEAMNFGESKGLTFERVLIYPHGPARKWLASGDIRHVEKSLTKMYVAVTRARYSVAFVHDGKICSVAATKWVPG", "soluble on expression in E. coli": "not soluble"}, {"sequence": "MGSDKIHHHHHHMLTGHHAPVRAYDAHASSNSSTGFRGRLRLSVATTERQCSMIIAHLSDLHIRETGKPFASGNVDCTARAAQAFERVANMTPRPDMMVVTGDLADSGQIGEYQLLKELTEGLPFPVHLALGNHDIRENFLAVFPEKKGPGGFVQFCVEHDKLRVIGLDTLVEGEGLGRLCSERLSYLRDCLQERPNTSTLILLHHPPFAFGGGIYDAVRLIDGARELGEIITANKQVVRLLCGHHHRAIDCLWNGTLASVAPSVVSSCHLQLGDVRVFKNINEPPAFKLHVLVPESGFVSHNVFVEDFGPAYENIPDPNYQALASMRKQTALAASR", "soluble on expression in E. coli": "not soluble"}]}]}
